This is an account of results in US20220226430A1.

Where “and” joins values, the source holds several entries; their conditions need not be identical. Equal entries are not always repeated.

The assay addresses TcdB from C. difficile strain M68 (Clostridium difficile strain M68). Put plainly: cell-based or functional assay.

B1: DARPin dimer DLD-4 (designed binder)
chain: GSDLGKKLLEAARAGQDDEVRILMANGADVNADDRIGMTPLHLAAIGGHLEIVEVLLKNGADVNADDVHGRTPLHLAAGRGHLEIVEVLHGADVNAPDRWGRTPLHLAAHHGHLEIVEVLLKYGADVNAQDKFGKTAFDISIDNGNEDLAEILQSSSEFGGGGSGGGGSGGGGSASDLGKKLLEAARAGQDDEVRILMANGADVNATDHLGVTPLHLAAVLGHLEIVEVLLKHGADVNAYDILGRTPLHLAAWRGHLEIVEVLLKYGADVNADDTSGTTPLHLAAGEGHLEIVEVLLKYGADVNAQDKFGKTAFDISIDNGNEDLAEILQSSS
Regarding B1, the EC50 against TcdB (in vitro neutralization) turned out to be 0.02 nM; the TcdB neutralization EC50 (Vero cells, CellTiterGlo) stood at 0.016 nM; the fold more efficacious than bezlotoxumab at inhibiting TcdB (CellTiter-Glo assay) came to 33 fold.

B2: dimeric DARPin U3D16 (designed binder)
chain: GSDLGKKLLEAARAGQDDEVRILMANGADVNADDRIGMTPLHLAAIGGHLEIVEVLLKNGADVNADDVHGRTPLHLAAGRGHLEIVEVLHGADVNAPDRWGRTPLHLAAHHGHLEIVEVLLKYGADVNAQDKFGKTAFDISIDSGNEDLAEILQSSSGGGGSGGGGSGGGGSGSDLGKKLLEAARAGQDDEVRILMANGADVNAADRYGPTPLHLAAYRGHLEIVEVLLKHGADVNAKDVLGWTPLHLAAWIGHLEIVEVLLKNGADVNARDRTGETPLHLAAAIGHLEIVEVLLKNGADVNAQDKFGKTAFDISIDNGNEDLAEILQSSS
Take B2: the fold higher neutralization activity than D16 alone was 10 fold and 20 fold.
